The values that follow come from patent US20260374888 (published 2026).

Test [1] concerns the target T1, mouse 4-1BB (mouse, UniProt P20334).
T1 chain: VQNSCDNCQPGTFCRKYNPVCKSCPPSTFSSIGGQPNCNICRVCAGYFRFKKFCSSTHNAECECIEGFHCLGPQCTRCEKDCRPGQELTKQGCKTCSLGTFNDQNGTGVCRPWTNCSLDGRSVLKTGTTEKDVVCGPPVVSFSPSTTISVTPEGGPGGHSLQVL
Nature of the test: other, cells transiently overexpressing target.

The target of test [2] is T2, mouse CD40 (mouse, UniProt P27512).
T2 chain: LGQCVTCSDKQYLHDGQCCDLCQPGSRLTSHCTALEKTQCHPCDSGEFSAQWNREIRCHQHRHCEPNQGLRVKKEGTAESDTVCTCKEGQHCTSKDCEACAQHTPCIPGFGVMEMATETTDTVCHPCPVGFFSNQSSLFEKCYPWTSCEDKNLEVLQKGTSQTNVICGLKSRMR
In words: other, cells transiently overexpressing target.

B1: GEN1042 (CD137 arm) (antibody, V domains shown)
VH: EVQLVESGGGLVQPGRSLRLSCTASGFSLNDYWMSWVRQAPGKGLEWVGYIDVGGSLYYAASVKGRFTISRDDSKSIAYLQMNSLKTEDTAVYYCARGGLTYGFDLWGQGTLVTVSS
VL: DIVMTQSPSSLSASVGDRVTITCQASEDISSYLAWYQQKPGKAPKRLIYGASDLASGVPSRFSASGSGTDYTFTISSLQPEDIATYYCHYYATISGLGVAFGGGTKVEIK
For the molecule B1, in test [1], the binding result is listed as “no binding”.

B2: GEN1042 (CD40 arm) (antibody, V domains shown)
VH: EVQLVQSGAEVKKPGASVKVSCKTSGYTFTEYIMHWVRQAPGQGLEWMGGIIPNNGGTSYNQKFQGRVTMTVDKSTSTGYMELSSLRSEDTAVYYCTRREVYGRNYYALDYWGQGTLVTVSS
VL: DIQMTQSPSSLSASVGDRVTITCSASQGINNYLNWYQQKPGKAVKLLIYYTSSLHSGVPSRFSGSGSGTDYTFTISSLQPEDIATYYCQQYSNLPYTFGGGTKVEIK
For B2, the binding result in test [2] is given as “no binding”.
